The numbers were not newly measured in publication PMC3263801, which cites them from elsewhere.

In the series the target is hDM2 (Homo sapiens) (UniProt Q00987).
Sequence of hDM2 (Homo sapiens) (Q00987 whole entry): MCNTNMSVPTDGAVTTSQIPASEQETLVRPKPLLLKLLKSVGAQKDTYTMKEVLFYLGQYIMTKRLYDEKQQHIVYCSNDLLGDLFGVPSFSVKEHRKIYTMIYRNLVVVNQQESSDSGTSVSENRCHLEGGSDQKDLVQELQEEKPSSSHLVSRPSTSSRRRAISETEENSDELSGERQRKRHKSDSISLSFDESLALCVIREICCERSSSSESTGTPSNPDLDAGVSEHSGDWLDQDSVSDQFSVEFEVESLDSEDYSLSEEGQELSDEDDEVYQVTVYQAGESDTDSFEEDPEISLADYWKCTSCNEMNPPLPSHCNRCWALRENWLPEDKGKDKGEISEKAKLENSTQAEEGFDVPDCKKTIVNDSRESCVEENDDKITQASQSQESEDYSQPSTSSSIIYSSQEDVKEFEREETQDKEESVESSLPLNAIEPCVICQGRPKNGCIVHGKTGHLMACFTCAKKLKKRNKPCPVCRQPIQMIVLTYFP

Turning to “stapled p53 peptide (from UniProt P04637)”, the Kd (usually the free concentration of one partner at which half of the binding sites on the other are occupied at equilibrium, for simple one-to-one binding) was 0.9 nM.
